Experimental data: the supplement of paper PMC10598134
± gives the standard deviation.

Assay: collision cross section of modified peptide (TIMS, N2, iRT-aligned); higher = larger / more extended gas-phase ion
Procedure, shortened: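 On a timsTOF Pro/HT (dda-PASEF, nitrogen, ~2.4 mbar), synthetic peptide pools were analysed after a 120-min nanoflow C18 separation at 60 °C and identified in MaxQuant. Three reference ions served for 1/K0 calibration, with run-wise alignment to the median iRT peptide deviation. Collision cross section comes from the Mason-Schamp equation, using the most abundant feature per charge state averaged over 1–3 technical replicates.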

[1] = charge state: 2, modification: Formyl
[2] = charge state: 3, modification: Formyl
[3] = charge state: 2, modification: Citrullination (R)
[4] = charge state: 2, modification: GlyGly (K)
[5] = charge state: 3, modification: GlyGly (K)
[6] = charge state: 3, modification: HexNAc (ST)
[7] = charge state: 2, modification: Phospho (Y)
[8] = charge state: 3, modification: Dimethyl (K)
[9] = charge state: 2, modification: Glutarylation
[10] = charge state: 3, modification: Glutarylation
[11] = charge state: 2, modification: hydroxyisobutyryl
[12] = charge state: 2, modification: Trimethyl (K)
[13] = charge state: 3, modification: Trimethyl (K)
[14] = charge state: 3, modification: Crotonyl
[15] = charge state: 3, modification: Methyl (R)
[16] = charge state: 2, modification: Crotonyl
[17] = charge state: 2, modification: Butyryl
[18] = charge state: 3, modification: Butyryl
[19] = charge state: 3, modification: hydroxyisobutyryl
[20] = charge state: 2, modification: HexNAc (ST)
[21] = charge state: 2, modification: Methyl (K)
[22] = charge state: 3, modification: Methyl (K)

DYSAPVNFISAGLKK [_DYSAPVNFISAGLK(Formyl)K_]
collision cross section [1]: 433.25 ± 0.72 Å²
collision cross section [2]: 526.56 ± 0.68 Å²

GRGGPGPAQR [_GR(Citrullination (R))GGPGPAQR_]
collision cross section [3]: 319.56 ± 0.91 Å²

GSLGAQKLANTCFNEIEK [_GSLGAQK(Succinyl)LANTCFNEIEK_]
collision cross section (charge state: 2, modification: Succinyl): 470.21 ± 0.66 Å²

VFIGNLNTLVVKK [_VFIGNLNTLVVK(Formyl)K_]
collision cross section [1]: 407.78 ± 0.74 Å²

FGSRGGPGGGFR [_FGSR(Citrullination (R))GGPGGGFR_]
collision cross section [3]: 349.6 ± 0.64 Å²

LLFSNTAAQKLR [_LLFSNTAAQK(GlyGly (K))LR_]
collision cross section [4]: 433.64 ± 0.96 Å²
collision cross section [5]: 492.29 ± 2 Å²

LTSLNVKYNNDK [_LTSLNVK(Propionyl)YNNDK_]
collision cross section (charge state: 2, modification: Propionyl): 410.81 ± 0.38 Å²

TAGSSGVTAGRPRPTAR [_TAGSSGVTAGRPRPT(HexNAc (ST))AR_]
collision cross section [6]: 527.29 ± 0.18 Å²

CYYGSDTAGR [_CY(Phospho (Y))YGSDTAGR_]
collision cross section [7]: 358.39 Å²

ITGKNQVTATK [_ITGK(GlyGly (K))NQVTATK_]
collision cross section [4]: 373.22 ± 0.38 Å²
collision cross section [5]: 442.8 ± 1.1 Å²

LDHLAEKFR [_LDHLAEK(Dimethyl (K))FR_]
collision cross section (charge state: 2, modification: Dimethyl (K)): 368.82 ± 0.36 Å²
collision cross section [8]: 433.76 ± 2.1 Å²

IQTVPASHLQQGTASGSSK [_IQTVPASHLQQGTAS(HexNAc (ST))GSSK_]
collision cross section [6]: 510.18 ± 0.18 Å²

SPDEAYAIAKK [_SPDEAYAIAK(Gluratylation)K_]
collision cross section [9]: 380.21 ± 0.73 Å²
collision cross section [10]: 455.46 ± 1.2 Å²

ITGKNQVTATK [_ITGK(hydroxyisobutyryl)NQVTATK_]
collision cross section [11]: 372.92 ± 1.4 Å²

SSFAYKDQNENR [_SSFAYK(Trimethyl (K))DQNENR_]
collision cross section [12]: 417.36 ± 0.75 Å²
collision cross section [13]: 458.31 ± 1.5 Å²

DSINFLDHINGKK [_DSINFLDHINGK(Crotonyl)K_]
collision cross section [14]: 467.81 Å²

CQGGQETQEYR [_CQGGQETQEY(Phospho (Y))R_]
collision cross section [7]: 381.17 Å²

VLTANSNPSSPSAAKR [_VLTANSNPSSPSAAK(GlyGly (K))R_]
collision cross section [4]: 445.95 ± 0.95 Å²
collision cross section [5]: 511.93 ± 0.35 Å²

PANEKATDDYHYEK [_PANEK(Dimethyl (K))ATDDYHYEK_]
collision cross section [8]: 491.56 Å²

KSQAGASELGPFSDPR [_KSQAGASELGPFS(HexNAc (ST))DPR_]
collision cross section [6]: 503.83 ± 1.1 Å²

TGGTQTDLFTCGKCK [_TGGTQTDLFTCGK(hydroxyisobutyryl)CK_]
collision cross section [11]: 448.92 Å²

LYDIDVAK [_LY(Phospho (Y))DIDVAK_]
collision cross section [7]: 363.27 ± 0.78 Å²

RLPTTGYLVYR [_R(Methyl (R))LPTTGYLVYR_]
collision cross section (charge state: 2, modification: Methyl (R)): 391.98 Å²
collision cross section [15]: 476.6 ± 3.2 Å²

DSSPTTNSKLSALQR [_DSSPTTNSK(Malonyl)LSALQR_]
collision cross section (charge state: 2, modification: Malonyl): 424.62 ± 0.65 Å²
collision cross section (charge state: 3, modification: Malonyl): 494.68 ± 0.88 Å²

LLIVSTTPYSEKDTK [_LLIVSTTPYSEK(Formyl)DTK_]
collision cross section [1]: 448.09 ± 0.69 Å²
collision cross section [2]: 480.73 ± 1.5 Å²

YEEIVKEVSTYIK [_YEEIVK(Gluratylation)EVSTYIK_]
collision cross section [9]: 443.96 ± 1.5 Å²

SRGAIISQYYNR [_SR(Methyl (R))GAIISQYYNR_]
collision cross section [15]: 476.32 ± 1.6 Å²

PANEKATDDYHYEK [_PANEK(Crotonyl)ATDDYHYEK_]
collision cross section [16]: 442.98 ± 0.0094 Å²
collision cross section [14]: 509.39 ± 1.3 Å²

GITGKPGPK [_GITGKP(Hydroxyproline)GPK_]
collision cross section (charge state: 2, modification: Hydroxyproline): 315.51 ± 1.9 Å²

DAIHFYNKSLAEHR [_DAIHFYNK(Butyryl)SLAEHR_]
collision cross section [17]: 452.1 Å²
collision cross section [18]: 511.38 ± 1.6 Å²

GEVQVSDKER [_GEVQVSDK(Trimethyl (K))ER_]
collision cross section [12]: 366.73 ± 1.1 Å²

GTISAPGKVVTAAAQAK [_GTISAPGK(hydroxyisobutyryl)VVTAAAQAK_]
collision cross section [11]: 447.84 ± 0.78 Å²
collision cross section [19]: 524.07 ± 2 Å²

VDGDTQTTVEK [_VDGDTQTT(HexNAc (ST))VEK_]
collision cross section [20]: 383.53 ± 0.58 Å²

VGEFSGANKEK [_VGEFSGANK(Formyl)EK_]
collision cross section [1]: 358.59 ± 1.4 Å²

GTGRGGGGGGGGGAPR [_GTGR(Citrullination (R))GGGGGGGGGAPR_]
collision cross section [3]: 349.34 ± 0.64 Å²

VNIGQGSHPQKVK [_VNIGQGSHPQK(Butyryl)VK_]
collision cross section [17]: 432.28 ± 0.24 Å²
collision cross section [18]: 485.89 ± 2.6 Å²

PATSYVR [_PATSY(Phospho (Y))VR_]
collision cross section [7]: 328.8 ± 0.068 Å²

LLIVSTTPYSEKDTK [_LLIVSTTPYSEK(Methyl (K))DTK_]
collision cross section [21]: 465.27 ± 2.3 Å²
collision cross section [22]: 508.6 ± 2 Å²

DVNAAIAAIKTK [_DVNAAIAAIK(Acetyl (K))TK_]
collision cross section (charge state: 2, modification: Acetyl (K)): 390.07 ± 14 Å²
collision cross section (charge state: 3, modification: Acetyl (K)): 457.21 Å²

GLPGEPGPRGLLGPK [_GLP(Hydroxyproline)GEPGPRGLLGPK_]
collision cross section (charge state: 3, modification: Hydroxyproline): 506.02 ± 0.37 Å²

IVSGKDYNVTANSK [_IVSGK(Butyryl)DYNVTANSK_]
collision cross section [17]: 419.09 ± 2.9 Å²

ITESVAETAQTIKK [_ITESVAETAQTIK(Gluratylation)K_]
collision cross section [9]: 429.83 ± 0.97 Å²
collision cross section [10]: 514.64 ± 1.7 Å²

DASTLQSQKAEGTGDAK [_DASTLQSQK(Formyl)AEGTGDAK_]
collision cross section [1]: 431.62 ± 0.17 Å²
collision cross section [2]: 503.35 ± 3 Å²

AQPQDSRGGSK [_AQPQDSR(Citrullination (R))GGSK_]
collision cross section [3]: 347.45 ± 0.9 Å²

DVNAAIAAIKTK [_DVNAAIAAIK(Biotin)TK_]
collision cross section (charge state: 2, modification: Biotin): 423.85 Å²

YLHDESGLNR [_Y(Nitro (Y))LHDESGLNR_]
collision cross section (charge state: 2, modification: Nitro (Y)): 366.66 ± 0.46 Å²
collision cross section (charge state: 3, modification: Nitro (Y)): 429.41 ± 1.1 Å²

ISSNFSSIIAEKLR [_ISSNFSSIIAEK(Methyl (K))LR_]
collision cross section [21]: 438.59 ± 1.7 Å²
collision cross section [22]: 507.3 ± 3.6 Å²

GFCFITYTDEEPVKK [_GFCFITYTDEEPVK(hydroxyisobutyryl)K_]
collision cross section [11]: 453.41 ± 0.8 Å²

DSINFLDHINGKK [_DSINFLDHINGK(hydroxyisobutyryl)K_]
collision cross section [19]: 468.17 ± 2.7 Å²

LLEQKTQESQK [_LLEQK(Trimethyl (K))TQESQK_]
collision cross section [12]: 409.98 ± 2.2 Å²
collision cross section [13]: 452.07 ± 1.5 Å²

VYSGHQGR [_VY(Phospho (Y))SGHQGR_]
collision cross section [7]: 330.73 ± 0.068 Å²
collision cross section (charge state: 3, modification: Phospho (Y)): 415.14 ± 2.5 Å²

LEKTIDDLEEK [_LEK(hydroxyisobutyryl)TIDDLEEK_]
collision cross section [11]: 411.13 ± 0.32 Å²

DTGEKLTVAENEAETK [_DTGEK(GlyGly (K))LTVAENEAETK_]
collision cross section [4]: 443.91 ± 1.6 Å²
collision cross section [5]: 490.28 ± 1.9 Å²

DLSTVEALQNLKNLK [_DLSTVEALQNLK(Crotonyl)NLK_]
collision cross section [16]: 484.33 ± 1.1 Å²

DSINFLDHINGKK [_DSINFLDHINGK(GlyGly (K))K_]
collision cross section [5]: 464.41 ± 1.6 Å²

RFSPPSSSLQPGK [_RFS(HexNAc (ST))PPSSSLQPGK_]
collision cross section [20]: 414.91 ± 1 Å²
collision cross section [6]: 448.47 ± 9.4 Å²

GEVQVSDKER [_GEVQVSDK(Butyryl)ER_]
collision cross section [17]: 363.29 ± 0.49 Å²
